In the supplement of paper PMC12636428:

Test system: Saccharomyces cerevisiae
Assay: transcriptional activation domain activity (GFP:mCherry ratio, weighted mean of sorted bins, harmonized to initial dataset scale) (arbitrary fluorescence ratio units); higher = stronger transcriptional activation
Details: beta-estradiol 1 µM; induction time 4 h
How it was run: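 Values are activation activity, found as the read-weighted mean of bin median fluorescence, averaged across barcodes and then mapped linearly onto the initial dataset scale. Barcoded protein tiles fused to an estradiol-inducible synthetic transcription factor were integrated at the URA3 locus of GFP-reporter yeast diploids. Cells were induced for 4 hours at 30 °C with 1 uM beta-estradiol in SC, sorted into 8 bins by GFP:mCherry ratio, and barcode-sequenced, with tiles under 50 reads discarded.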

With “VTHHYGNRVGVRWLTNGIKCYYVPFAIIHRNAIFPTVWSLFPILRNILIRERI” the “transcriptional activation domain activity” value was 63400.
With “VTLVKRVDLFWYFVPNSVCWSCVVERSIALDVAERYLGRETNATPPWIRGLLP” the “transcriptional activation domain activity” value was 32500.
With “VTQLIRDARRLLTCVRTGFVFYLGTCMALTCLQMISFCTVLPPILTGYQILWV” the “transcriptional activation domain activity” value was 63000.
With “VTRHHEFLRVHLNEKGEKLLYITHRLDKNGFDVRVFLVAASGFLTDSYILFVT” the “transcriptional activation domain activity” value was 39700.
“VTSAKPVQNAGKSRPTSPKPKNVEEREEEKPEVKPVAASPVKATPAPTAAAPV” was tested, and the “transcriptional activation domain activity” value was 29000.
“VTSLATARLPAARPRTAVLPARATSAVRRVTCRANAPRTAVRVTAATVPSATR” was tested, and the “transcriptional activation domain activity” value was 45400.
With “VVAAETAPATEEKPAEETKPAEEAAKAEEKKEEEEIKPVEEGHLNHKAQGLSF” the “transcriptional activation domain activity” value was 49400.
With “VVALVADPEFQRELAYVLCGQSILVRWPAKILNGLWLYCHLLQQAILPWFIFY” the “transcriptional activation domain activity” value was 52600.
For “VVAYGSGKEEGMKVEGEGEGGKVLRDIIDKLGHALTSTRFAGLPLPHVLAVVK”, the “transcriptional activation domain activity” value was 69700.
“VVCHFVIMMASMSYKIVICVIIGVHADLMVMDARWRSLGSWLYLLCGVIVAPA” was tested, and the “transcriptional activation domain activity” value was 67300.
With “VVCRYYHLMMGRTFILLIFTQTLSGLVVYHGVCRSWEVLGCIAHLIKGGIFFF” the “transcriptional activation domain activity” value was 55800.
For “VVDHCVSRFSGFTFLFFVLFTAFYMWQIISFVLGVLRLVDMYNFYTHLLKIPD”, the “transcriptional activation domain activity” value was 54300.
“VVDYHTTYRRMIIVCLQSVLGLFRDMVEQFLGVIYTIYVLIRVFVVFPVWVIY” was tested, and the “transcriptional activation domain activity” value was 61200.
With “VVEALRLPLKPIQLLSKLFLRRLYEQDQLEEIRGIAKQIKIELYLLVALNVLL” the “transcriptional activation domain activity” value was 54000.
With “VVENHKREVQYARYHCLKSWRLTLDVCLKRAFHLVPTVGRHELLISMLQAIIG” the “transcriptional activation domain activity” value was 37300.
“VVFNQIWIYFFIYTMIFICLILVAFYTVLLVLLIHPKKIPHNTRTVLNVYRAR” was tested, and the “transcriptional activation domain activity” value was 66100.
In the case of “VVFVLIIFSLSILPSAPLVKTGALVVLASLLLMPITQQFFLPSLPIWTYLLYF”, the “transcriptional activation domain activity” value is reported as 47500.
“VVGGQQKFGTKMVVESDKKCRLILLPRFAETGILVLVNMRTLAVKCVKFGTRG” was tested, and the “transcriptional activation domain activity” value was 19300.
For “VVGISCCFLCMIVILLYFFPLLLFSSLRPLIYLVELLPLTCHIALGGSLYLTL”, the “transcriptional activation domain activity” value was 77600.
For “VVHLLSPKRLDILWGVNPKGIHIFRMVLFISLLFSYLGRSGSLMLSIARIFTY”, the “transcriptional activation domain activity” value was 45900.
For “VVKGDEVQIVRGSKKGAEGRVTQVYRKKWVIHVDRVERQKAKEQTVPVPVAAS”, the “transcriptional activation domain activity” value was 70900.
“VVLASSPSSQTTSSTSVVLIFGSDDKRVKEVGEGLKAKLDMRGGGKGTRWSGK” was tested, and the “transcriptional activation domain activity” value was 14200.
In the case of “VVLGWILGKECMTLYFDTFQIALLFVSVLLVNYLIQDGKSHWLEGVLLVCSYL”, the “transcriptional activation domain activity” value is reported as 37400.
With “VVLPCLNLVLAVRKYFVRYLMMPRYSTLQVFGEENAAGYRPMLFWEIEPWYVA” the “transcriptional activation domain activity” value was 41800.
With “VVLSVLCSLLNTTLKYNPASWRVPYDHVVFKDSKQILVTYCLQLLLVLILYPI” the “transcriptional activation domain activity” value was 44500.
In the case of “VVLWHIVISLRFWFNFVSVVPALRWVYLSIYEIKVDYKNLIEYTLPQLCSLFI”, the “transcriptional activation domain activity” value is reported as 54600.
For “VVLYMLRFLGLMHIMLFSHIDQRCKDFAKVYLRGRIIRYTCPFFSRSSLHKIV”, the “transcriptional activation domain activity” value was 49400.
For “VVNLLQSLHFGGLLNHKKRHYFWIIFGAIFFWEWIPQFPFPLLTAFSVICLVD”, the “transcriptional activation domain activity” value was 47400.
With “VVNVLLSVFNGYDTGKSGIRCNPLPNSFIPLIMTAMLLSMLTFLLVTTIACYV” the “transcriptional activation domain activity” value was 38300.
“VVPCLALVKKKSFFFVFFLLFLFLCTHLTACIAFSPFLFLFLFVFLFVALFSV” was tested, and the “transcriptional activation domain activity” value was 40400.
For “VVPYYCLFVFFPFYSCVLVRLAGNCHSCLIIALFFLILISGRSFFFFFFFFFF”, the “transcriptional activation domain activity” value was 14200.
In the case of “VVSFFVILGYMLLYRMRSTQLWSNRSTSSFGERPKPPIVAYRSIIIRIGLRKL”, the “transcriptional activation domain activity” value is reported as 67300.
In the case of “VVTLHEILKCLGHLRSLVLTAKAFGCLQAIRMILEHFLLVWRKTITHCLRYSE”, the “transcriptional activation domain activity” value is reported as 60400.
With “VVTRWILFIVPMLGIVWIPGILSLTTFPHATVWGVKLIWWSIWLSVVWGGWWV” the “transcriptional activation domain activity” value was 38300.
In the case of “VVVILRMWAFCYRGSGHAHEMLHLLHNLICVWTKEFQYIVLQNWLANPQGKPK”, the “transcriptional activation domain activity” value is reported as 58500.
For “VVVKVALLLRWLVMVYDVLDGHTMLSQLYGLLFNCLDMISLRTHICHLLSLLT”, the “transcriptional activation domain activity” value was 27000.
With “VVVYCKSIDLLFRVALYLWRSPAVIAWISFAARQARVIVATVVFGLGINRADI” the “transcriptional activation domain activity” value was 69400.
In the case of “VWEAVTTGFDGGFVPRTRDADAGTRRTGGSVRAEERKEKLRAWRVSRCWAVLA”, the “transcriptional activation domain activity” value is reported as 56500.
“VWEMCLVVGMGSELDVLYRVNNTVFVGCFCLARLTIVLLFAMSMLYLPMFRRD” was tested, and the “transcriptional activation domain activity” value was 61200.
“VWFKIVWAWLYVFTSTWLLGVFLSYVKWWLLWVPWFLRSRVRCCVFLAILYIV” was tested, and the “transcriptional activation domain activity” value was 73800.
“VWIVIYISLSYLFSGVLESVILIYSWIRGFPVIQLLFPKCQVYMNGFLVLFVI” was tested, and the “transcriptional activation domain activity” value was 61200.
“VWVASKVEEDEASDYAAPEKQAKPKRQRGRPKKGGEDKSDVTSTAAAQESAAK” was tested, and the “transcriptional activation domain activity” value was 24500.
In the case of “VWVCGFLVVYLFYTWGVLSFVFFQMLINHLSFINLFFFYILSSFIGGLTLNFF”, the “transcriptional activation domain activity” value is reported as 51200.
With “VWVKTPWNLYALLLATLSHSLMIDPLLGVLLYYSSITWDPLYRILIFCIFAFW” the “transcriptional activation domain activity” value was 45400.
For “VYCELVSFLVLSSKKSDTKLLIQLERVARYISQLLFVESDAITMTSGISVLRP”, the “transcriptional activation domain activity” value was 37500.
In the case of “VYCQVLLNHKYRAYGGGYRAETIIYSFGRLSDLLYFVPVVVGRMEMRMGLTLK”, the “transcriptional activation domain activity” value is reported as 52200.
“VYIFLTFFIATWWPLCLVNLFGWMLLYLFRGVFPEAIMLIFNVLSRVVTIHRI” was tested, and the “transcriptional activation domain activity” value was 42000.
For “VYIGACWGHWAQLNVFLIPGLVVWFIDRGIRFARTALLHYNFLPSGHMGFRAA”, the “transcriptional activation domain activity” value was 77700.
In the case of “VYILSFYLPSLFPSFFTHSLFFFLHLWSCSTSSQTNMRLPTLAFISLPFVLTF”, the “transcriptional activation domain activity” value is reported as 53600.
In the case of “VYILVSYFLLGPRCLILIASTFLLSYHSSWSIVTRRVLWRFKVVRLIFFYLTG”, the “transcriptional activation domain activity” value is reported as 61700.
“VYIYAKTISIVLLTDIYIGKYTYILISLKLLARKKFYNILTNPIFCAHIRLVI” was tested, and the “transcriptional activation domain activity” value was 55300.
With “VYKRKILVLIYKIAHLTDLYLEVANGGPKLRLHLSALSFHTCAWKSKGLSIPE” the “transcriptional activation domain activity” value was 35900.
In the case of “VYLCNVNLSIFKSVLSWVGVCTALYGCITIMPIFRHDSPYHTPLSFLAWHIVI”, the “transcriptional activation domain activity” value is reported as 63600.
For “VYMLTMESKKLLLRHVIDKLPGFLPTDLSGVTFLADWIHMQTGRIKKGTFNIV”, the “transcriptional activation domain activity” value was 59700.
“VYPEKVIFAPFEIFVVLVSFFNLVLFLFCFPFTLYPPKRWLRIVVLLFLFFFC” was tested, and the “transcriptional activation domain activity” value was 50400.
“VYPENYETASVNTERDMELLVGHFDFMAKEAFLADSISLCSTEEELERRLDTP” was tested, and the “transcriptional activation domain activity” value was 102000.
“VYRRELDQNKGGLILIVRRTGNEVHCGVYITFGFMKQWKLYVKSLISITGQWH” was tested, and the “transcriptional activation domain activity” value was 58500.
In the case of “VYSYKKRMWHYFLFDLCYYVNIINLVYIWILPQSAWLFVACYCLSHGSVASAV”, the “transcriptional activation domain activity” value is reported as 58700.
For “VYTDLIRIIGDTKPILLDNYHNAMRRTMSVVIGFRVFYYHNEWHRAKGFIRKA”, the “transcriptional activation domain activity” value was 38400.
In the case of “VYTVMILSTIFGICYVPFGVFICDSLKAYPGEVTNCSHQMQNLATIFFILFSV”, the “transcriptional activation domain activity” value is reported as 57000.
“VYVDNDGLPARSQWVLMYERMGEQGGMTLAARFVMFVDFLVQMVRLLSRSPLY” was tested, and the “transcriptional activation domain activity” value was 34600.
In the case of “VYYFWVRIFVFSFRSTCFCIFLFYYLYLFFLFIFLYLTSSFSSFHHLSLLLVV”, the “transcriptional activation domain activity” value is reported as 57800.
In the case of “WAPLNVGLERRLQTFVVLCHTLTIPIFLTLFFFLCAIPLFWPLLIPYLIYILL”, the “transcriptional activation domain activity” value is reported as 34700.
For “WAQERGVYANVFGYPGGVAWAMLVARICQLYPNAVSAVVIRKFFQIYSQWKWP”, the “transcriptional activation domain activity” value was 29700.
“WARNARKNKSTEEASAQEQRRGAQVIVIHPGSRFLRIGKASEVSPVTVLNVVA” was tested, and the “transcriptional activation domain activity” value was 55600.
With “WATVYLWTCHYQLLVYICTLIIIETRGFLKLGYVFLITLLLLSCIPHILLHVI” the “transcriptional activation domain activity” value was 30300.
In the case of “WCVVLCMVLILPRLFYTILQMNDYNISPFNPNVNALYTSLLGYLPLLAVFIVM”, the “transcriptional activation domain activity” value is reported as 53800.
For “WDDILTPADNQHRPSLTNQFLSPRSNYDGTTRSSGIDSNYSDTESNYHTPYLY”, the “transcriptional activation domain activity” value was 61600.
With “WDGGPTSKLTHVLLTYRQSILVTVYSHLLLLDHSSQVWWRWMNIFFTLVIWSI” the “transcriptional activation domain activity” value was 71000.
“WDLLLGIQMSWDAVLDLWPRLWAWFEFLDTYSDILSSLLVYLSDADFSLIWVL” was tested, and the “transcriptional activation domain activity” value was 62800.
“WDMTLGGTINKTGVIGVIMIVIGFYLWFFLSCAVLIAMEGCSAMLHSLRLQWV” was tested, and the “transcriptional activation domain activity” value was 31300.
For “WDWARRYHCLAWGGEVSLLSFLPLLPVCLLSWLCRVSPIKWALVAVFFFWLLG”, the “transcriptional activation domain activity” value was 65900.
In the case of “WEPPLYDSVGNHNHAGTMESHPHTNIHEELKEFLSGDLIEAEDNAKLMFGDDN”, the “transcriptional activation domain activity” value is reported as 55300.
In the case of “WERIREKASILALAYRLGVLLFALHFLFCLSQPPRFARLFWLSFSLLVPSTFF”, the “transcriptional activation domain activity” value is reported as 59000.
